Columns and labels:
bone marrow MSCs = experiment: DNA synthesis ([3H]thymidine incorporation) in MSCs; format: cell-based, human; conditions: 20 hours
Text: For the experiment, bone marrow aspirates were taken from normal human adult donors after informed consent. For the preparation of bone marrow MSCs, essentially a widely used technique was used as described earlier by others [Pittenger, M. F., Mackay, A. M., Beck, S. C., et al. (1999) Multilineage potential of adult human mesenchymal stem cells. Science 284, 143-147]. Briefly, nucleated cells were isolated with a pre-prepared commercial density gradient (Lymphoprep, Nycomed, Pharma, Oslo, Norway) and re-suspended in Dulbecco's modified Eagle's medium (DMEM) (GIBCO, Grand Island, NY) supplemented with 10% fetal calf serum (FCS), 50 U/ml of penicillin, and 50 μg/ml of streptomycin (GIBCO). All nucleated cells were plated in 25-cm^2 flasks (BD Falcon, Bedford, MA) at 37° C. in humidified atmosphere containing 5% CO2. After 24 hours, non-adherent cells were removed and cryopreserved in liquid nitrogen until use. The remaining adherent cells were thoroughly washed with Hanks balanced salt solution (HBSS) (GIBCO). Fresh complete culture medium was added and replaced every 3 or 4 days (twice a week). When cells grew to about 80% confluence, they were suspended and harvested by incubating with a ready-made solution containing 0.25% trypsin and 1 mM EDTA (Sigma-Aldrich, St. Louis, MO) for 5 minutes at 37° C.; this cell suspension is designated as passage 1. These cells were further expanded with 1:3-1:5 splitting in 175-cm^2 flasks (BD Falcon). For the determination of DNA synthesis, cells were divided into 12-well plates in the complete medium and let the cells grow to about 60% confluence. After changing the spent medium for fresh complete medium (i.e., containing 10% fetal calf serum), cells were treated for 20 hours with 20-100 μM ATP and/or 200 nM PLAP as well as 50-200 μM Cyp in the absence or presence of 200 nM PLAP. For labeling newly formed DNA, cells received 1,130,000 d.p.m. [^3H] thymidine for the last 4 hours of the treatment period. DNA synthesis was determined as described earlier [She, Q.-B., Mukherjee, J. J., Huang, J.-S., Crilly, K. S. and Kiss, Z. (2000) Growth factor-like effects of placental alkaline phosphatase in human fetus and mouse embryo fibroblasts. FEBS Lett. 469, 163-167]. The data is expressed as d.p.m. [^3H] thymidine incorporated into DNA/well (n=3).

[1] = amifostine treatment, intravenous route, cancer patients; cited from earlier work
[2] = system: mouse bone marrow-derived hematopoietic stem cells (HSCs); conditions: 3 days
Procedure: Bone marrow was harvested by flushing bones from female C57/BL/6 mice in Fischer medium (Thermo Fisher Scientific; catalogue no. 21475025) containing 20% horse serum (Hyclone, Logan, UT), 100 Unit/ml penicillin, […] streptomycin (Gibco, BRL), 0.015 fungizone (Gibco, BRL), and 0.1 μM hydrocortisone sodium succinate (SynoPharm; Hamburg, Germany). Pooled stem cells were seeded into 25 cm 3 flasks (10 ml cell suspension) and after 3 days of incubation at 33° C. in 5% CO2 in air in the absence of PLAP, they were plated into 12-well plates and were incubated in the absence (n=8) or presence of 50 μg/ml PLAP (n=8) for additional 3 days.
In a follow up experiment with hematopoietic stem cells, the same incubation medium in 12-well plates contained either no other addition (n=8) or contained 200 μM Cyp without (n=8) or with 50 μg/ml PLAP (n=8) for 3 days.

[3] = purified PLAP; cited from earlier work
[4] = Spectrophotometric assay of PLAP enzyme activity (hydrolysis of 4-nitrophenylphosphate); format: biochemical; conditions: 22° C., pH 9.8, 10 mM 4-nitrophenylphosphate
Text: Human PLAP (Type XXIV, 1020 units of total activity) in a partially purified form was obtained commercially from Sigma-Aldrich. A butanol extraction of placental tissue performed by Sigma-Aldrich to obtain the partially purified material was followed by chromatography steps as described in [Chang, T.-C., Huang, S.-M, Huang, T.-M. and Chang, G.-G. Human placental alkaline phosphatase: An improved purification procedure and kinetic studies. Eur. J. Biochem. 209, 241-247, 1992] to obtain an essentially pure preparation of PLAP as determined by sodium dodecyl sulfate-polyacrylamide gel electrophoresis (SDS-PAGE). The enzyme activity of PLAP was assayed using a spectroscopic method to monitor the hydrolysis of 4-nitrophenylphosphate (as an increase in absorbance at 410 nm) at room temperature (22° C.) as described in [Chang, G.-G., Shiao, M.-S., Lee, K.-R. and Wu, J.-J., Modification of human placental alkaline phosphatase by periodate-oxidized 1,N6-ethenoadenosine monophosphate. Biochem. J., 272, 683-690, 1990]. Activity analysis of 5-10-μg purified enzyme was performed in 1 mL incubation volume containing 50 mM Na2CO3/NaHCO3, 10 mM MgCl2, 10 mM 4-nitrophenylphosphate at pH 9.8. The extinction coefficient of 4-nitrophenol was taken as 1.62×10^4 M^−1 cm^−1. An enzyme activity of 1 U (unit) is defined as 1 μmole substrate hydrolyzed per 1 min at 22° C. at pH 9.8. […]

With Nc1ncnc2c1ncn2[C@@H]1O[C@H](COP(=O)(O)OP(=O)(O)OP(=O)(O)O)[C@@H](O)[C@H]1O [ATP] the “d.p.m. [^3H] thymidine incorporated into DNA/well” value (bone marrow MSCs; ATP 20 μM, no PLAP) was 70,738 ± 1,367 d.p.m, the “d.p.m. [^3H] thymidine incorporated into DNA/well” value (bone marrow MSCs; ATP 50 μM, no PLAP) was 55,808 ± 1,480 d.p.m and the “d.p.m. [^3H] thymidine incorporated into DNA/well” value (bone marrow MSCs; ATP 100 μM, no PLAP) was 38,601 ± 1,940 d.p.m.

For NCCCNCCSP(=O)(O)O [amifostine], the “patients with reversible clinical hypotension, protracted nausea and vomiting” value [1] is listed as 15-20%.

B1: PLAP: highly purified native placental alkaline phosphatase derived from human placenta via conventional purification methods (protein, UniProt P05187 23-506, looked up)
Alkaline phosphatase, …: IIPVEEENPDFWNREAAEALGAAKKLQPAQTAAKNLIIFLGDGMGVSTVTAARILKGQKKDKLGPEIPLAMDRFPYVALSKTYNVDKHVPDSGATATAYLCGVKGNFQTIGLSAAARFNQCNTTRGNEVISVMNRAKKAGKSVGVVTTTRVQHASPAGTYAHTVNRNWYSDADVPASARQEGCQDIATQLISNMDIDVILGGGRKYMFRMGTPDPEYPDDYSQGGTRLDGKNLVQEWLAKRQGARYVWNRTELMQASLDPSVTHLMGLFEPGDMKYEIHRDSTLDPSLMEMTEAALRLLSRNPRGFFLFVEGGRIDHGHHESRAYRALTETIMFDDAIERAGQLTSEEDTLSLVTADHSHVFSFGGYPLRGSSIFGLAPGKARDRKAYTVLLYGNGPGYVLKDGARPDVTESESGSPEYRQQSAVPLDEETHAGEDVAVFARGPQAHLVHGVQEQTFIAHVMAFAACLEPYTACDLAPPAGTTD
In the case of B1, the “change of the number of hematopoietic stem cells” value ([2]; 50 μg/ml PLAP, no Cyp) is given as “did not significantly change”, the “decrease of the number of cells by Cyp” value ([2]; 200 μM Cyp, presence of 50 μg/ml PLAP) is given as 10% and the “half-life time in human circulation” value [3] is given as “about 7 days”. For the same molecule, the “d.p.m. [^3H] thymidine incorporated into DNA/well” value (bone marrow MSCs; PLAP 200 nM + ATP 20 μM) was 90,708 ± 2,518 d.p.m, the “d.p.m. [^3H] thymidine incorporated into DNA/well” value (bone marrow MSCs; PLAP 200 nM + ATP 50 μM) was 84,740 ± 3,231 d.p.m and the “d.p.m. [^3H] thymidine incorporated into DNA/well” value (bone marrow MSCs; PLAP 200 nM + ATP 100 μM) was 80,916 ± 2,252 d.p.m. The “d.p.m. [^3H] thymidine incorporated into DNA/well” value (bone marrow MSCs; PLAP 200 nM + Cyp 50 μM) was 81,887 ± 3,173 d.p.m, the “d.p.m. [^3H] thymidine incorporated into DNA/well” value (bone marrow MSCs; PLAP 200 nM + Cyp 200 μM) was 74,798 ± 2,408 d.p.m and the “d.p.m. [^3H] thymidine incorporated into DNA/well” value (bone marrow MSCs; PLAP 200 nM, no ATP) was 89,865 ± 2,021 d.p.m. The “specific activity of purified PLAP” value [4] was 685 Units per mg protein.

From patent US20240165209A1, “PLACENTAL ALKALINE PHOSPHATASE FOR REDUCING THE LOSS OF RED BLOOD CELLS, WHITE BLOOD CELLS, AND PLATELETS IN CHEMOTHERAPY TREATED CANCER PATIENTS” (ZOLTAN LABORATORIES, LLC, priority 2021, published 2024)
